According to patent publication US20180186871A1 (SINGAPORE HEALTH SERVICES PTE, published 2018):
Residue numbers refer to the chain shown, from its start.

T1: human IL-11 (human, UniProt P20809 22-199)
T1 construct: In the ELISAs this is recombinant human IL-11 coated on the plate (expressed in CHO cells as Fc-tagged and tag-free versions); In the fibroblast assays it is the IL-11 produced by human fibroblasts after TGFβ1 stimulation; also called recombinant human IL-11 (GenScript Cat. No. Z03108-1); interleukin 11
T1 sequence (looked up): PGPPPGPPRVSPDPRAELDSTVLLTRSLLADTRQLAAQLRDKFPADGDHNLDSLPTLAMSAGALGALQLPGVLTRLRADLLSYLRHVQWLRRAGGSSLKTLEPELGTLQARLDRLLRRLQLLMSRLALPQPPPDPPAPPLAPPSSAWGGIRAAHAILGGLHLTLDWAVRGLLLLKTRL

T2: FLAG-tagged human IL-11 expressed at the cell surface (human, UniProt P20809 22-199)
T2 construct: whole, on cells; also called IL-11 expressing HEK cells; target cells expressing human IL-11 at their surface; not shown: how the protein is held at
T2 sequence (looked up): T1 sequence (looked up)

B1: YU46-B6 (Fc fusion, not shown: a dimerising Fc or GST; small tags and cut ends)
VH: QVQLVQSGAEVKKPGASVKVSCKASGYTFTSYGISWVRQAPGQGLEWMGWISAYNGNTNYAQKLQGRVTMTTDTSTSTAYMELRSLRSDDTAVYYCARVVAAARSYYYYMDVWGKGTTVTVSS
VL: SSELTQDPAVSVALGQTVRITCQGDSLRGYYATWYQQKPGQAPVVVMYGNNNRPSGIPDRFSGSSSGNTASLTITGAQAEDEADYYCDSRGRSGDHWLFGGGTKLTVL
notes: tested as scFv-Fc (human IgG1); also called #47
B2: YU45-D9/D3 (Fc fusion)
VH: EVQLVESGGGVVQPGRSLRLSCAASGFTFSSYGMHWVRQAPGKGLEWVAVISYDGSNKYYADSVKGRFTISRDNSKNTLYLQMNSLRAEDTAVYYCARLHFSQYFSTIDAFDIWGQGTMVTISS
VL: QSVLTQPPSVSAAPGQEVTISCSGSSSNIGNNYVSWYQHLPGTAPKLLIYDNTERPSGIPDRFSGSRSGTSVTLGITGLQTGDEADYYCGTWDSSLSGGVFGGGTKLTVL
notes: tested as scFv-Fc (human IgG1); also called #31
B3: YU45-F2 (Fc fusion)
VH: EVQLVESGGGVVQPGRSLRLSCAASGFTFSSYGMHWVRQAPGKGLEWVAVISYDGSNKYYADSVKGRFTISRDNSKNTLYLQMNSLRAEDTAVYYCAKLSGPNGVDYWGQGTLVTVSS
VL: QPVLTQPRSVSGSPGQSVTISCTGTSSDVGGYNYVSWYQQHPGKAPKVMIYDVSKRPSGVPDRFSGSKSGNTASLTISGLQAEDEADYYCCSYAGSYTWVFGGGTKLTVL
notes: tested as scFv-Fc (human IgG1); also called #24
B4: YU46-G8 (Fc fusion, not shown: a dimerising Fc or GST; small tags and cut ends)
VH: EVQLVESGGGVVQPGRSLRLSCAASGFSLGSYGMHWVRQAPGKGLEWVAVISYDGSNKYYADSVKGRFTISRDNSKNTLYLQMNSLRAEDTAVYYCAKGSYYFDYWGQGTLVTVSS
VL: DIQMTQSPSSLSASVGDRVTITCRASQGSSSYLAWYQQKPGKAPKLLIYAASSLQSGVPSRFSGSGSGTDFTLTISSLQPEDFATYYCQQSYSTPLYTFGQGTKLEIK
notes: tested as scFv-Fc (human IgG1); also called #54
B5: YU45-G7 (Fc fusion)
VH: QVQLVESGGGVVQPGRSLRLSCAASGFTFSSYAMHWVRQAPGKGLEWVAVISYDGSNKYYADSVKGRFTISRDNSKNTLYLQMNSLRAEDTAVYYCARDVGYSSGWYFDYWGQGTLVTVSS
VL: QSVLTQPPSVSAAPGRTVTISCSGSYSNVGSNLVSWYQQLPGTAPKLVIYEDDKRLSGIPDRFSGSKSGTSASLAISGLQSEDEADYYCAAWDDSLKGHVFGGGTQLTVL
notes: tested as scFv-Fc (human IgG1); also called #33
B6: Yu45-G8 (Fc fusion, not shown: a dimerising Fc or GST; small tags and cut ends)
VH: EVQLVESGGGVVQPGRSLRLSCAASGFTFSSYGMHWVRQAPGKGLEWVAVISYDGSNKYYADSVKGRFTISRDNSKNTLYLQMNSLRAEDTAVYYCAKFARGVYLFDYWGQGTLVTVSS
VL: QSALTQPASVSGSPGQSITISCTGTSSDVGGYDYVSWYQQHPGTAPKLMISDVHNRPLGVSNRFSGSKSGNTASLTISGLQAEDEADYYCSSYTSSITWVFGGGTKLTVL
notes: also called YU45-G8/H6; #19
B7: YU46-A8 (Fc fusion, not shown: a dimerising Fc or GST; small tags and cut ends)
VH: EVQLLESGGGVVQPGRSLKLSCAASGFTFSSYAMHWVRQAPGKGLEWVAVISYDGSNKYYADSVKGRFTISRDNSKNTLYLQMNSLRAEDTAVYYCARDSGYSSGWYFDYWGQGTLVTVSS
VL: QSALTQPRSVSGSPGQSITISCTGTSSDVGGYEYVSWYQQHPGKAPRLLIYDVSNRPSGVSNRFSGSKSGNTASLTVSGLQAEDEADYYCNSYTSSGTLVVFGGGTKLTVL
notes: tested as scFv-Fc (human IgG1); also called #45
B8: YU46-D3 (Fc fusion, not shown: a dimerising Fc or GST; small tags and cut ends)
VH: EVQLLESGGGVVQPGRSLRLSCAASGFTFSSYAMHWVRQAPGKGLEWVAVISYDGSNKYYADSVKGRFTSSRDNSKNTLYLQMNSLRAEDTAVYYCARSGVLDYWGQGTLVTVSS
VL: B7 VL with R8A, G31N, E33K, R47K, L49M, V77I, N91S, G97S
notes: tested as scFv-Fc (human IgG1); also called #56
B9: YU100-G08 (scFv)
scFv: QVQLVQSGGGVVQPGRSLRLSCAASGFTFSSYGMHWVRQAPGKGLEWVAVISYDGSNKYYADSVKGRFTISRDNSKNTLYLQMNSLRAEDTAVYYCAKIGATDPLDYWGQGTLVTVSSGSASAPKLEEGEFSEARVQSALTQPRSVSGSPGQSVTLSCTGTSSDVGGYNYVSWYQHYPGKAPKLMIFDVNERSSGVPDRFSGSKSGNTASLTISGLQAEDEADYYCCSYAGRYTWMFGGGTKVTVL
notes: light chain-shuffled human anti-IL-11 clone
B10: YU100-F11 (scFv)
scFv: QVQLVESGGGVVQPGRSLRLSCAASGFTFSSYGMHWVRQAPGKGLEWVAVISYDGSNKYYADSVKGRFTISRDNSKNTLYLQMNSLRAEDTAVYYCAKIGATDPLDYWGQGTLVTVSSGSASAPKLEEGEFSEARVQSALTQPASVSGSPGQSITISCTGSSSDVAGYNYVSWYQQHPGKAPKLMIYDVTKRPSGVPDRFSGSKSGNTASLTISGLQAEDEADYYCCSYAGSYTWVFGGGTQLTVL
notes: as for B9
B11: YU100-H01 (scFv)
scFv: QVQLVQSGGGVVQPGRSLRLSCAASGFTFSSYAMHWVRQAPGKGLEWVAVISYDGSNKYYADSVKGRFTISRDNSKNTLYLQMNSLRAEDTAVYYCARIMGYDYGDYDVVDYWGQGTLVTVSSGSASAPKLEEGEFSEARVQSALTQPRSVSGSPGQSVTISCTGTSSDVGAYNYVSWYQQHPGKAPKLMIYDVSERPSGVPDRFSGSKSGNTASLTISGLQAEDEADYYCCSYAGSYTWVFGGGTKLTVL
notes: as for B9
B12: BSN-2E1 (antibody, V domains shown)
VH: QVQLQESGPELVKPGASVKIPCKASGYTFTDYNMDWVKQSHGKSLEWIGDINPHNGGPIYNQKFTGKATLTVDKSSSTAYMELRSLTSEDTAVYYCARGELGHWYFDVWGTGTTVTVSS
VL: NIVMTQSPKSMSMSVGERVTLTCKASENVVTYVSWYQQKPEQSPKLLIYGASNRYTGVPDRFTGSGSATDFTLTISSVQAEDLADYHCGQGYSYPYTFGGGTKLEIK
notes: mouse monoclonal anti-human IL-11 antibody from a hybridoma; also called A3
B13: BSN-8H11 (antibody, V domains shown)
VH: B12 VH with Q1E, E6Q, M34I, H54N, N55Y, P58T, I59L, T65K
VL: DIVLTQSPASLAVSLGQRATISCRASKSVSTSDYSYMHWYQQKPGHPPKLLIYLASNLESGVPARFSGSGSGTDFTLNIHPVEEEDAATYFCQHSRDLPPTFGGGTKLEIK
B14: BSN-3C6 (antibody, V domains shown)
VH: B12 VH with Q1E, E6Q
VL: B13 VL with D33G, M37I, H46Q, E59D, F91Y
B15: BSN-7D4 (antibody, V domains shown)
VH: EVQLQQSGPELVKPGASVKISCKASGYTFTDYNMDWVKQSQGKRLEWIGDINPNYGGTIYNQKFKGKATLTVDKSSSTAYMELRSLTSEDTTVYYCTRGELGHWYFDVWGTGTTVTVSS
VL: B13 VL with A9P, A12T, T31A, D33G, H46Q, A55T, F91Y, R96W
B16: BSN-2G6 (antibody, V domains shown)
VH: QVQLQESGPELVKPGASVKIPCKASGYTFTDYNMDWVKQSHGKSLEWIGNINPDNGGTIYNQKFKGKATLTVDKSSSTAYMELRSLTSEDTAVYFCAREGPYGYTWFAYWGQGTLDTVSA
VL: DILLTQSPAILSVSPGERVSFSCRASQSIGTSIHWYQQRTNGSPRLLIKYASESISGIPSRFSGSGSGTDFTLSINSVESEDIADYYCQQSNSWPLTFGAGTKLELK
notes: mouse monoclonal anti-human IL-11 antibody from a hybridoma; also called A5
B17: BSN-1H2 (antibody, V domains shown)
VH: QAQLQQSGAELARPGASVKLSCKASGYTFTSYGITWVKQRTGQGLEWIGDIYPRSGNIYYNENFKGEATLTADKSSSTAYMQLSRLTSEDSAVYFCARSGWEGWFAYWGQGTLVTVSV
VL: DIVMTQSHKFMSTSVGDRVNITCKASQDVGSAVVWYQQKPGQSPKVLIYWASTRHTGVPDRFTGSGSGTDFTLTISNVQSEDLADYFCQQYSSYRTFGGGTKLEIK
B18: BSN-5B8 (antibody, V domains shown)
VH: QVQLQQSGAELARPGTSVKLSCKASGYTFTSYGISWVKQRTGQGLEWIGEIYPRSSNTYYNEKFKGKATLTADKSSSTAYMELRSLTSEDSADYFCARANWVGYFDVWGTGTTVTVSS
VL: B17 VL with N20T, S31T, V34A, V46L, H55L, D70Y, S76N
notes: mouse monoclonal anti-human IL-11 antibody from a hybridoma; also called A9

target: T1, human IL-11; test: EC50 from the indirect ELISA titrations of FIGS. 28A-28F on plate-coated recombinant human IL-11 (five-parameter fit), ng/ml is the concentration unit of FIG. 28 and paragraph 502

| EC50 [µg/mL] | Binder |
| --- | --- |
| 0.222 | B1 |
| 0.71 | B2 |
| 0.00424 | B3 |
| 0.0323 | B4 |
| 0.0101 | B5 |
| 0.00629 | B6 |
| 0.351 | B7 |
| 0.655 | B8 |

target: T1, human IL-11; test: indirect ELISA on plate-coated recombinant human IL-11 (1 µg/mL), detection with HRP anti-human IgG (Fc-specific), absorbance 450-570 nm

| EC50 (read off the curve) [µg/mL] | Binder |
| --- | --- |
| ~0.004 | B3 |
| ~0.006 | B6 |

target: T1, human IL-11; test: cell-based or functional assay

| MMP2 production (ng/ml), TGFB1-stimulated human atrial fibroblasts, Experiment 1 (NEG 42.7, POS 70.2) [ng/mL] | MMP2 production (ng/ml), TGFB1-stimulated human atrial fibroblasts, Experiment 2 (NEG 36.2, POS 62.3) [ng/mL] | Binder |
| --- | --- | --- |
| 42.3 | 38 | B9 |
| 44.5 | 37.6 | B10 |
| 48.3 | 42.2 | B11 |

target: T1, human IL-11; test: ELISA binding signal

| hIL11 - average signal | Binder |
| --- | --- |
| 0.153 | B9 |
| 0.319 | B10 |
| 0.43 | B11 |

target: T2, FLAG-tagged human IL-11 expressed at …; test: flow cytometry of hybridoma subclone supernatants on cells transfected with pB1-IL11-hum.FL (FLAG-tagged human IL-11 at the cell surface), anti-mouse IgG detection; sheet says 'flow cytometry (Attunes)', legend says iQue

| % positive (anti-FLAG positive control = 100%) [%] | Binder |
| --- | --- |
| 164 | B12 |
| 190 | B13 |
| 176 | B14 |
| 176 | B15 |
| 23 | B16 |
| 157 | B17 |
| 188 | B18 |

target: T1, human IL-11; test: ELISA on coated recombinant human IL-11, scFv-Fc dilution series

| EC50 [µg/mL] | Binder |
| --- | --- |
| 0.028 | B9 |
| 0.027 | B10 |
| 0.053 | B11 |
